Entries after “also recorded” stand apart in the source; their conditions may differ.
Assays:
PCSK9 [1] = molecular target: T1, PCSK9 (Homo sapiens, UniProt Q8NBP7); test: Phase 1b ascending multiple dose study in hyperlipidemic subjects on a statin; format: in vivo
T1 construct: endogenous in cells; host or cells: human subjects, in vivo
Experimental: The study had seven cohorts. […] Cohort 6 was conducted in hypercholesterolemic subjects on high doses of a statin (atorvastatin 80 mg or rosuvastatin 40 mg).

LDLR = LDLR levels in HepG2 and HepG2-PCSK9 cells with mevinolin (immunoblot); format: cell-based, human; details: 48 hours
Experimental: HepG2 cells were seeded in DMEM with 10% fetal bovine serum (FBS) and grown to ˜90% confluence. The cells were treated with indicated amounts of mevinolin (a statin, Sigma) and PCSK9 ABPs (FIGS. 12A-12C) in DMEM with 3% FBS for 48 hours. Total cell lysates were prepared. […] of total proteins were separated by gel electrophoresis and transferred to PVDF membrane. Immunoblots were performed using rabbit anti-human LDL receptor antibody (Fitzgerald) or rabbit anti-human b-actin antibody. The enhanced chemiluminescent results are shown in the top panels of FIGS. 12A-12C. The intensity of the bands were quantified by ImageJ software and normalized by b-actin. The relative levels of LDLR are shown in the lower panels of FIGS. 12A-12C.
HepG2-PCSK9 cells were also created. These were stable HepG2 cell line transfected with human PCSK9. The cells were seeded in DMEM with 10% fetal bovine serum (FBS) and grew to ˜90% confluence. The cells were treated with indicated amounts of mevinolin (Sigma) and PCSK9 ABPs (FIGS. 12D-12F) in DMEM with 3% FBS for 48 hours. Total cell lysates were prepared. […] of total proteins were separated by gel electrophoresis and transferred to PVDF membrane Immunoblots were performed using rabbit anti-human LDL receptor antibody (Fitzgerald) or rabbit anti-human b-actin antibody. […] The intensity of the bands were quantified by ImageJ software and normalized by b-actin.

PCSK9 [2] = test: Serum lipids after a single subcutaneous dose in cynomolgus monkeys; format: in vivo, cynomolgus monkey; details: 0.5 mg/kg single SC
Description: Briefly, naive male cynomolgus monkeys were acclimated to their environment for at least 2 weeks prior to experimentation. Animals were randomized into treatment groups based on a pre-screen of their serum TC, HDL-C, LDL-C, and triglyceride levels, and their body weight. After 1 week, animals were fasted overnight, and bled from the peripheral vasculature (cephalic or saphenous vein), for measurement of baseline serum lipid levels at a time point designated T=0. […] Fasting blood samples were then collected from animals at designated time points over a 45 day period.
At specified time points, blood was collected from animals under overnight fasting conditions from the peripheral vasculature (cephalic or saphenous vein). Whole blood was allowed to coagulate for 30 minutes at room temperature. Following centrifugation at 3,000 rpm for 20 minutes, serum was collected. Direct serum cholesterol analysis was performed using the Cobas Integra 400 analyzer (Roche Diagnostics Inc, Indianapolis, Ind.). Apolipoprotein B serum levels were determined at specified time points (day 0, 3, 6, 15, 24 and 33) by Anilytics, Md., with the following methodology. A 17 μL aliquot of the sample (no preparation) was used for analysis with a Hitachi 717 Analyzer using a 6 points standard curve. If the initial value of the sample was higher than the standard curve linearity, then the sample was diluted and repeated with the result multiplied by the appropriate dilution factor. The reagents for the assay (APO-B Reagent Kit #86071, Antibody Set #86060, Control Set #86103) were obtained from DiaSorin (Stillwater, Minn.).
A statistical model that considers baseline as a covariate and treatment group as a fixed effect was fit to the log transformed response at each time point for LDL-C, HDL-C, TC, and triglycerides. Tukey's multiple comparison correction was applied to adjust the pair wise comparisons at each time point. The statistical significance was evaluated at alpha=0.05 using adjusted p-values.

[3] = cohorts 1-5, end of dosing interval

T1 sequence (Q8NBP7 153-692): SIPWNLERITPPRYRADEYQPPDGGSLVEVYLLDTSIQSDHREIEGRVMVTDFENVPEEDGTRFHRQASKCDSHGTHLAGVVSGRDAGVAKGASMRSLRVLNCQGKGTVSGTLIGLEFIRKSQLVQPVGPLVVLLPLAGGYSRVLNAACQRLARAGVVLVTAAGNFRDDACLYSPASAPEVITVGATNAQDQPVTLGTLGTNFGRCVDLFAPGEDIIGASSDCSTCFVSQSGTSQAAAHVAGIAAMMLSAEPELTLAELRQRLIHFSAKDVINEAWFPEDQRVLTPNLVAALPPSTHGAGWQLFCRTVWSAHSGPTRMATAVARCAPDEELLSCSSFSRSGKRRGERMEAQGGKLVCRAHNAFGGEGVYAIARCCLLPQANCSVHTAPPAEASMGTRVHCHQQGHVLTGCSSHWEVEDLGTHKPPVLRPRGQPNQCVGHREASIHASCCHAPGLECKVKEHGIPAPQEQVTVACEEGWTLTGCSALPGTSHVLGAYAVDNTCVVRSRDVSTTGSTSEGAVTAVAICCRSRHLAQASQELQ

B1: 21B12: human anti-PCSK9 monoclonal antibody, light/heavy variable region SEQ ID NO 23/49 (antibody, listed as Homo sapiens, V domains shown)
VH: QVQLVQSGAEVKKPGASVKVSCKASGYTLTSYGISWVRQAPGQGLEWMGWVSFYNGNTNYAQKLQGRGTMTTDPSTSTAYMELRSLRSDDTAVYYCARGYGMDVWGQGTTVTVSS
VL: QSALTQPASVSGSPGQSITISCTGTSSDVGGYNSVSWYQQHPGKAPKLMIYEVSNRPSGVSNRFSGSKSGNTASLTISGLQAEDEADYYCNSYTSTSMVFGGGTKLTVL
With B1 the “suppression of PCSK9” value (PCSK9 [1]; cohort 3 (140 mg Q2W SC 3 times), preliminary) was “Near-complete suppression of PCSK9”, the “maximum reduction in LDL-C versus placebo” value (PCSK9 [1]; cohort 6, high-dose statins) was 73% and the “mean reduction in LDL-C vs placebo” value (PCSK9 [1]; cohort 6, high-dose statins, end of dosing interval after 3 biweekly doses) was 63%. For the same molecule, the “maximum LDL-C reduction versus placebo” value (PCSK9 [1]; cohort 7 heFH) was 70%, the “maximum reduction of ApoB versus placebo” value (PCSK9 [1]; cohort 7 heFH) was 57% and the “maximum reduction of non-HDL cholesterol versus placebo” value (PCSK9 [1]; cohort 7 heFH) was 67%. For the same molecule, the “maximum total cholesterol reduction versus placebo” value (PCSK9 [1]; cohort 7 heFH) was 47%, the “mean reduction in LDL-C vs placebo” value (PCSK9 [1]; cohort 7 heFH, 140 mg SC Q2W 3 times, week 6) was 65% and the “mean reduction in ApoB levels vs placebo” value (PCSK9 [1]; cohort 7 heFH, week 6) was “up to 47%”. For the same molecule, the “mean reduction in lipoprotein a (Lp(a)) vs placebo” value (PCSK9 [1]; cohort 7 heFH, week 6) was 50%, the “mean reduction in non-HDL cholesterol vs placebo” value (PCSK9 [1]; cohort 7 heFH, week 6) was 61% and the “mean reduction in serum PCSK9 values vs placebo” value (PCSK9 [1]; cohort 7 heFH, week 6) was 78%. The “mean reduction in total cholesterol vs placebo” value (PCSK9 [1]; cohort 7 heFH, week 6) was “up to 42%”, the “maximum ApoB reduction vs placebo” value (PCSK9 [1]; cohorts 1-5) was “up to 59%” and the “mean LDL-C reduction vs placebo at maximal reduction” value (PCSK9 [1]; cohorts 1-5, low to moderate statin doses) was “up to 81%”. The “mean ApoB reduction vs placebo” value (PCSK9 [1]; [3]) was “up to 54%”, the “mean reduction of PCSK9 levels vs placebo” value (PCSK9 [1]; [3]) was “up to 94%” and the “mean LDL-C reduction vs placebo at end of dosing interval” value (PCSK9 [1]; cohorts 1-5, week 6 after 3 biweekly SC doses) was ≤ 75%. The “mean LDL-C reduction at end of dosing interval” value (PCSK9 [1]; cohorts 1-5, week 8 after 2 every 4 week SC doses) was ≤ 66%, the “mean Lp(a) reduction vs placebo” value (PCSK9 [1]; cohorts 1-6, end of dosing interval) was “up to 43%” and the “circulating PCSK9 after treatment” value (PCSK9 [1]; heFH subjects) was “undetectable”. For the same molecule, the “plasma PCSK9” value (PCSK9 [1]; higher doses) was “undetectable”, the “serious AEs” value (PCSK9 [1]; repeated SC doses over 6 weeks) was “no serious AEs” and the “decrease in circulating LDL-C vs placebo” value (PCSK9 [1]; repeated SC doses over 6 weeks, low-to-moderate or high-dose statins) was “up to 81%”. The “LDL-C nadir observed after initial dosing” value (PCSK9 [1]; subjects on stable moderate statin doses, preliminary) was ≤ 2 weeks, the “LDLR levels compared with the non-neutralizer 25A7.1” value (LDLR) was “greater increase in LDLR levels” and the “LDL-C returned to levels similar to control animals” value (PCSK9 [2]) was ≤ 6 days. The “TC returned to levels similar to control animals” value (PCSK9 [2]) was ≤ 4 days, the “maximal LDL-C lowering as compared to control animals” value (PCSK9 [2]) was 64% and the “maximal TC lowering as compared to control animals” value (PCSK9 [2]) was 20%. For the same molecule, the “maximal lowering of LDL-C vs anti-KLH IgG2 control at the same time point (change)” value (PCSK9 [2]) was −64%, the “serum HDL-C vs anti-KLH IgG2 control” value (PCSK9 [2]) was “statistically significant change in HDL-C at a single time point (day 18 following injection); also recorded: lowered HDL-C at a single time point, 18 days after injection” and the “time of maximal LDL-C lowering after injection” value (PCSK9 [2]) was 3 days. For the same molecule, the “time of maximal TC lowering after injection” value (PCSK9 [2]) was 3 days, the “triglycerides levels vs anti-KLH IgG2 control” value (PCSK9 [2]) was “No statistically significant changes” and the “serum ApoB vs anti-KLH IgG2 control” value (PCSK9 [2]; days 3, 6, 15, 24 and 33) was “statistically significant lower ApoB levels at day 3 only”.

Source: patent US12612465B2, “Formulations comprising PCSK9 specific monoclonal antibodies” (Amgen Inc., priority 2012, dated 2026)
